The values that follow come from US20260167721A1 (ABLEXIS, published 2026).

Experiment [1] concerns the target T1, human CD3 (TCR/CD3 complex on the cell surface) (human, UniProt P07766 23-207; P04234 22-171; P09693 23-182).
T1 construct: whole, on cells; Native CD3 on human Pan-T cells or Jurkat wild-type cells; also called CD3 on Pan-T cells; CD3 on Jurkat WT cells
Put plainly: flow cytometry, Pan-T cells, 1 ug/mL. On the technique in general: A flow cytometer gives signals particle by particle.

Experiment [2] deals with T1, human CD3 (TCR/CD3 complex on the cell …). The experiment in a line: flow cytometry, Pan-T cells, 10 ug/mL.
For experiment [3] the target is unchanged. Put plainly: flow cytometry, Jurkat WT cells, 1 ug/mL.
Experiment [4] shares this target. The experiment in a line: flow cytometry, Jurkat WT cells, 10 ug/mL.
Experiment [5] shares this target. Put plainly: flow cytometry, Jurkat WT gMFI over Jurkat KO gMFI, 1 ug/mL.
Experiment [6] has the same target. Put plainly: flow cytometry, Jurkat WT gMFI over Jurkat KO gMFI, 10 ug/mL.

T1 sequence (P07766 23-207, chain 1 of 3): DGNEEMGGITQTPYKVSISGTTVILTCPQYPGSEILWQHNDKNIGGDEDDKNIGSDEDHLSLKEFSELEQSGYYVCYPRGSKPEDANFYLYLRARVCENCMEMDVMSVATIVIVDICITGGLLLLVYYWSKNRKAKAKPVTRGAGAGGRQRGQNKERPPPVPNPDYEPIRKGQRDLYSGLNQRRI
T1 sequence (P04234 22-171, chain 2 of 3): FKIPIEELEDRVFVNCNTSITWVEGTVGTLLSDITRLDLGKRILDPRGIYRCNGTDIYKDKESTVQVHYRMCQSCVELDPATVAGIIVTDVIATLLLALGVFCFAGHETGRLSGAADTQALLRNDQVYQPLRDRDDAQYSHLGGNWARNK
T1 sequence (P09693 23-182, chain 3 of 3): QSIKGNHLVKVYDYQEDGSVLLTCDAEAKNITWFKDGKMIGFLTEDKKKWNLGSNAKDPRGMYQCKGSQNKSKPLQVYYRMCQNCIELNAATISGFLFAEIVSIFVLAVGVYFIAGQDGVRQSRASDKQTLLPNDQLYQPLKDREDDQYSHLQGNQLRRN

B1: CD3 × CD33-BspAb96 (bispecific antibody)
chain 1: SYELTQPPSVSVSPGQTARITCSGDALPKKYAYWYQQKSGQAPVLVIYEDSKRPSGIPERFSGSSSGTMATLTISGAQVEDEADYYCYSTDSSGNHSWVFGCGTKLTVLGGGGSGGGGSGGGGSGGGGSEVQLVESGGGLVKPGGSLRLSCAASGFTFSSYSMNWVRQAPGKCLEWVSSVNSRGSYIYYADSVKGRFTISRDNAKDSLYLQMNSLRADDTAVYYCARDRRELLLDYWGQGTLVTVSSDKTHTCPPCPAPEFEGGPSVFLFPPKPKDTLMISRTPEVTCVVVDVSHEDPEVKFNWYVDGVEVHNAKTKPREEQYNSTYRVVSVLTVLHQDWLNGKEYKCKVSNKALPASIEKTISKAKGQPREPQVYTLPPCREEMTKNQVSLWCLVKGFYPSDIAVEWESNGQPENNYKTTPPVLDSDGSFFLYSKLTVDKSRWQQGNVFSCSVMHEALHNHYTQKSLSLSPGK
chain 2: EVQLVQSGAEVKKPGSSVKVSCKASGYTITDSNIHWVRQAPGQSLEWIGYIYPYNGGTDYNQKFKNRATLTVDNPTNTAYMELSSLRSEDTAFYYCVNGNPWLAYWGQGTLVTVSSASTKGPSVFPLAPSSKSTSGGTAALGCLVKDYFPEPVTVSWNSGALTSGVHTFPAVLQSSGLYSLSSVVTVPSSSLGTQTYICNVNHKPSNTKVDKRVEPKSCDKTHTCPPCPAPEFEGGPSVFLFPPKPKDTLMISRTPEVTCVVVDVSHEDPEVKFNWYVDGVEVHNAKTKPREEQYNSTYRVVSVLTVLHQDWLNGKEYKCKVSNKALPASIEKTISKAKGQPREPQVCTLPPSREEMTKNQVSLSCAVKGFYPSDIAVEWESNGQPENNYKTTPPVLDSDGSFFLVSKLTVDKSRWQQGNVFSCSVMHEALHNRFTQKSLSLSPGK
chain 3: DIQLTQSPSTLSASVGDRVTITCRASESLDNYGIRFLTWFQQKPGKAPKLLMYAASNQGSGVPSRFSGSGSGTEFTLTISSLQPDDFATYYCQQTKEVPWSFGQGTKVEVKRTVAAPSVFIFPPSDEQLKSGTASVVCLLNNFYPREAKVQWKVDNALQSGNSQESVTEQDSKDSTYSLSSTLTLSKADYEKHKVYACEVTHQGLSSPVTKSFNRGEC
Consider B1, for which the “% Positive” value in experiment [1] turned out to be 8.2%; in experiment [2] it was 95.8%. The gMFI is 3700 gMFI in experiment [1], 17900 gMFI in experiment [2], 2370 gMFI in experiment [3] and 7470 gMFI in experiment [4]. The “Jurkat WT/KO (Fold)” value in experiment [5] stood at 1.1 fold; in experiment [6] it was 3.5 fold.

B2: CD3 × CD33-BspAb97 (bispecific antibody)
chain 1: SYELTQPPSVSVSPGQTARITCSGDALPKKYAYWYQQKSGQAPVLVIYEDSKRPSGIPERFSGSSSGTMATLTISGAQVEDEADYYCYSTDSSGNHWVFGCGTKLTVLGGGGSGGGGSGGGGSGGGGSEVQLVESGGGLVKPGGSLRLSCAASGFTFSNYYMNWVRQAPGKCLERVSSISSSSNYIYYADSVKGRFTISRDNAKNSLYLQMNSLRAEDTAVYYCARDRRELPLDYWGQGTVVTVSSDKTHTCPPCPAPEFEGGPSVFLFPPKPKDTLMISRTPEVTCVVVDVSHEDPEVKFNWYVDGVEVHNAKTKPREEQYNSTYRVVSVLTVLHQDWLNGKEYKCKVSNKALPASIEKTISKAKGQPREPQVYTLPPCREEMTKNQVSLWCLVKGFYPSDIAVEWESNGQPENNYKTTPPVLDSDGSFFLYSKLTVDKSRWQQGNVFSCSVMHEALHNHYTQKSLSLSPGK
chain 2: B1 chain 2
chain 3: B1 chain 3
As to B2, the “% Positive” value in experiment [1] was 66.3%; in experiment [2], 98.5%. Besides, the gMFI in experiment [1] was found to be 9270 gMFI; in experiment [2], 53000 gMFI; in experiment [3], 3890 gMFI; in experiment [4] it was 8450 gMFI. Further, the “Jurkat WT/KO (Fold)” value in experiment [5] was determined as 1.7 fold; in experiment [6], 3.7 fold.
